According to the DeepSol protein solubility set:

test: soluble on expression in E. coli; label from the status in PepcDB or PDB records

Sequence	soluble on expression in E. coli
MAHHHHHHMSLCHTASRWRSVQCTGDIPPGRIGHTLCANGTETKIFLYGGVNDRNESISNYLDDLYVFDVNKKHWSKIEMTGQVQCSRAFHSAVYYEGKIYIFGGCNGRGRFNKLFSTSEEGLCAQIEASGQPPSTRYCHSAVLFERCMYIFAGKCGGRNSNRRLSDLYLFDFQTNTWMECPQHGDPPTPRSAHAAFTCGRNMIMFGGRSAQGECCEDMYMYNYDTCMWRPIESPNSGPLFGRARNSVVVHHGKVVVFGGWNGKKKLNDLFTYHVDSNTFEVMHEPDENCPSRRECHVAVVCKNTMVVFGGRFRGEFMSDTAELDLGPKTLKQNCRDWILRSSFKELHSNRGERLPLRLQQFIESWRQLICRVEKIEPRTPLQDSAPNEALSSDSNSQHG	not soluble
MGSDKIHHHHHHMPFVSYAQNLEDVRLWRALKLFPRGFYIDVGANHPRIDSVTLAFYERGWRGINIEPLPHLHRELERERPEDLNLNLAIGEREGRATLYEMAASGLSTLDPELARQRQAEGCTATPREVKVSTLDAICAAHVEGPIHFLKIDVEGLEGAVLRGLDLNRWRPWLILAETPFDHDPEWKAPLLAAGYRFVHFDGLNGYYLAEEQARLEGAFALPPNLLDDFQLCHGHAMSHPVAPLEQALEQALQRAEDAERALRDWRALPWYRRLFG	not soluble
MSLTIAHDIDLSAVLAERLTTTHPDVLRELLAAFIHALMGAEADAVCGAGYGQRSSERTNSRNGYRHREFDTRAGTLDLAIPKLRQGSYFPDWLLERRKRAERALTTVVATCYLLGVSTRRMDKLVETLGITSLSKSQVSVMAKELDAAVEAFRTRPLDAGPYTFMAADALVLKVREAGRVVNVHALIATGVNAEGYREILGIDVTTTEDGAGWLTFLRSLTARGLSGVRLVTSDAHAGLVAAIGATLPGASWQRCRTHYATNLMAITPKSSWPWVRTLLHSVFDQPDAGSVAAQYDRIIDALADKLPKVADHLEDTRADLLAFTAFPKQIWRQIWSNNPQVICSPRDGVFDVRHEVLRSQVLRAGHAYLQLSRRQEPAEGRCRLHELSRRSRCVSRGEGHHHHHH	not soluble
MSHLDEVIARVDAAIEESVIAHMNELLIALSDDAELSREDRYTQQQRLRTAIAHHGRKHKEDMEARHEQLTKGGTIL	soluble
MIMQEKIKEIASRVRELRELSEISVEKMAEYLQVSKEIYEKYENGTEDIPASILFEIAHRLQVDMATLLTGEEPRMNVFTVTRSGKGVSVERREQYRYQNLAEKFIHKKAEFFIVTVDPKPQGTKPDTNSHPGQEFNYVLEGSLKVYIHHNEIILNEGDSIYFDSNYQHAMEAMNGKTAKFLAVIM	not soluble
MATCGRRDDILDLLKSLEQQTYKNFELIVVDQNDTPISDLFDEYKDKFSINYIYTPIKGLSRARNAGLKVADGDFIAFPDDDCIYEKNVLESILETFNSNKDVHFISTNTTNVEGTGSLIHAPNTDIILNNKYGFMGPSFTLFFTKQFVQDVGTFDEDLGVGSGTIYGAGEETDFVLRGMKQNYTGLFRKDLFVYHPVKEEIINEQSLKRAISYAGGFGRIIRLHYGFPYFLRAVAAATFRMTQNISNDKRKFHANRLRGIVRGYLK	not soluble
ELEPGAFSELYQRYRHCDAPICLYEQGRDSFEDEGRWRLILCATCGSHGTHRDCSSLRPNSKKWECNECLPA	soluble
MSLELPSFIFQAQENLVERPWGGEWIALLKGFRQSGIGESWEFSAHTSRPSTVLVKGQQLSMIELFSKHRDELLGRAAEKFSKFPILVRLIDAASPTQVHVHPSDKAAESLGEAEGGVESAWLVFNKGKAYAGFKEDVKIEELEEKLKEEDFDFKTLLNTFETTPYDTFVIRPGIPHAGEGLRVLEVSSNSTLAYFFNENDWEKVKKVLNTKKVEEFEVKGKKGMAETENFGLEVVDVTGTAEIKTGGVMNILYAAEGYFILRGKETADLHRGYSCLVPASTDSFTVESERGKIVRIYLKVEGGSHHHHHH	soluble
MAHHHHHHMKLQKQQQQKRMTGLKEKRIACRLTYIWLSGRDSHHDIRSKDRTAYLTTEEVAKHPKELLADGIFPVWNFDGSSTKQVCGADTEILLNPVNAYHCCLPRLSTTVPWILVLAECCLPNGEPTNDNSRAVARRIFERAPEEHPWFGMEQEFFLIKDGHPYGWPPRGFPAPQGPYYCSTGCLCVHGRRYVDLHYEVCLQMGLNISGTNAEVAPGQWEFQVGPCEGIEMGDQLTVARWVLLRILEDDGLDADYRAKPIRGEWNGSGLHTNFSTASTRNENGLSVIYEYVERLKKTISKDIVLYGAENNERLTGKYETSKPNEVTAGVGTRGTSIRIPNAVAAERKGYMEDRRPAGDADPYLVSARLFASCVCIESPELDLISSFHERSWMKFGDLS	soluble
SGKVILITGASRGIGLQLVKTVIEEDDECIVYGVARTEAGLQSLQREYGADKFVYRVLDITDRSRMEALVEEIRQKHGKLDGIVANAGMLEPVKSISQSNSEHDIKQWERLFDVNFFSIVSLVALCLPLLKSSPFVGNIVFVSSGASVKPYNGWSAYGCSKAALNHFAMDIASEEPSDKVRAVCIAPGVVDTQMQKDIRETLGPQGMTPKALERFTQLYKTSSLLDPKVPAAVLAQLVLKGIPDSLNGQYLRYNDERLGPVQG	soluble
MGSDKIHHHHHHMKSYFVTMGFNETFLLRLLNETSAQKEDSLVIVVPSPIVSGTRAAIESLRAQISRLNYPPPRIYEIEITDFNLALSKILDIILTLPEPIISDLTMGMRMINTLILLGIIVSRKRFTVYVRDEGGGSRVISFNDNTIRALMRDYSREEMKLLNVLYETKGTGITELAKMLDKSEKTLINKIAELKKFGILTQKGKDRKVELNELGLNVIKLNKSVIESSKSSEELVKENKGKEVNIPY	not soluble
MRWDIFCHVVDNYGDIGICWRLARQLVTEFDISVRMLVDDLGAMQRICPAIDPRLAVQNIRGVEILHWVEPFADLVPADVVIEAFGCELPPRYIAAMAAASPRFSEPEGKTDRIWINLEYLSAEQWVEGCHGLASPHPSLPLIKYFFFPGFTAATGGLLREAELFTLRDASRTDPAGLWRELGITNPAADEATVSLFCYDSAPISDLLEAWAGSISPVRCLLPEGTASASAASWAGISRLAAGDSIQRGNLTLHVIPFMSQENYDHLLWACDCNFVRGEDSFVRAQWAVRPIVWQIYPQQENVHLIKLEAFLDLYCQELIEPAADAVRAFHRSWNNNEQPDWNCFWKYRDVLQQHAMAWAERLAQIPNLASSLVNFCRNR	not soluble
MSSSDTFEKLYIEQHDAPSEEQVEEWLATGEVLKLEQIVLDGRGHMLREKKTVNASSNEFLSGLTQYLTKIDAIHKAVEEGDVRRVKSLIDRPLLSTARDNYGMTPIHKALLHGQTNTVRFLLGRFPSCVNATDHRIFGILVDSVSNGVFNKSPLKKNAGRTPLHYAAADPNGEHMIKVLQKSGGDAFIEDKHGHTPFYYRTHGQRLNVRSMKDNAVMNQLISGQLSRPLLQDLEEDIYDWIHTGNIGKLEELVLTGYADLLLGRNHEVDDADSIGFLEVLPQYQAKIQSIHKAVETGNLRAVKLLTDRKKLSLCRDTRGLSPLHKAIVFERTDIAKYLIRNYPQSVNAMDQKKRTPLHYAAALKDGGYLYKVMRKSGADPNIYDCNGRPAKYYLKHTGEIDLSAMRLDTRAALKQVLHNRVAPSYLESSIQQWLRDGQLAKLEQLVLSGCGDLLQSRTSTHTETQAFLDRLPDYMDKIDGIHKSIKEGNLDKVKELMKTKKLAIARDRFGCTPLHSAVVHEHTEIVRYIAGHYNSVLNAPDYNKRTAMHYAAAARDGGHYLKILGKAGADPMAVDNEGRTPDYYRRNAVIDLKLIKDRDEDFETINEEYLEDGPLIDSPATPDSGSEGSFIDSARMLDDEDESIERHRFEKAFRGKIDLPTSENGVYLARTVAPVLTKALAEVLLRRPADPIGFIAEWLSKYVVEIPRHNGSH	not soluble
MKIESWKEGDFVNVPGKQAVSLEEFYRMRETTDRILEYIDGAVLMSPSPSTQHQRISGRLHVQLFHFLEGKPCEVFHAPFDIELKNERIEGKKIVVPDLTVICDRSGLTDSKFVGVPTLIIEILSPSNQAYDLVFKLNLYMQYGVGEYWIVNPMHSVVQIYSLNDDGQYEQAGVWKETGMACSRALDGFSVDVEQLFRP	not soluble
MSLTYEKIKQLRENREITQKEISNALDINVSVYNKIELGIRPLREEELTAIADFFNVSIDYLTGRTDNPTTPSNNQKEAGQNIISHFRLNTNDLSSDDIEELEKELIDFQEFLIKRAKERKEGGSHHHHHH	soluble
MGSDKIHHHHHHAAYGEDNHKKERHPDDRKINVGIRGGFNSSMFLVSDLKIKDVTIDEIQNNYKIGYFGALFMRLNMKRHFIQPEISYNISRCEISFDKLGSQHPDIEPDYASVSSTIHSIDFPLLYGYHVVKQGPYTMSLFAGPKLRYLWNKKNKITFENFDQQGIHEKLYPFNVSAVIGVSVNISRIFFDFRYEQGLHNLSKSVTYDNIDMEGRPEVSNITFRRRDNVLSFSLGVIF	not soluble
MSLSKELAVTPKQSLEAVVSYFRSAHKEPDSAVRAIHHQPASEGEFSEMPAAVDSRLRAALAKRGIERLYTHQADAFDQIQAGKHVVIVTPTASGKTLCYNLPVLNLLLRDEGARAMYLFPTKALAEDQLHEFQGAVEEMGSEIRAFTYDGDTPQDARRAIRSRANVVLTNPDMLHSGILPHHTRWARYFENLRYIVIDELHYYRGVYGSHLANLLRRLSRICEFYNSKPQFICCSATIANPKELAEALTGEPFELVERNGAPRGEKFFIFYNPPVVNRQLGIRRSYIAETRRMALKFIENNLQTLVFANNRLATEVLVTYLKDACDRGPIPSETVRGYRGGYLPRERREIEQSLRAGKIRAVVATNALELGIDIGSLDAVVMAGYPGTIASSWQRAGRAGRRQSTSAAVMVASSAPLDQYIVEHPDYFFGRSPEHAYINPENLEIFLAHLKCAAFELPLRDDEKFGRHDLAEICRYLEEAGFLHHSAAAWHWTSDTYPADATSLRSVTSDNFVVVDITGEAKVIAEVSFPTALTTLHEKAIYLHEARQFHVERFDYDQRKAYVKSVDCDYYTDAIDYTQVKVLEEMEGEPQNGARRLHGDVRVTRQIVGFKKIKFYTMENVGAGKLNMPEQEMHTTAFWLHFPAAFLARFAEFTPTEKQSGISGLGNALRTVASLLLMCDPRDLGVALSEEIAGGLEAFEPNLYLYDNYPGGIGQSGPLYRLAPQLLRQTAGLLAACACEAGCPSCVGPSGETGERGKLVAARILAELMGTAEQITAEGHHHHHH	soluble
YLASDGKTIILVGKNNLQNDELTFKMSKKGELWFHAKDIPGSHVLIKDNLNPSDEIKTDAAELAAYFSKARLSNLVQVDMIEAKKLNK	not soluble
MHCALLYSGGKDSTLAALLLDPFYDVTLVSGSFGVRDTDPAQESATAVGFDHVTVDLDPDVAHDAVKQMFDDGYPRNGIQRVHEHAVETVARADWVADADGLGTLDAVADGTRRDDRVPTVDRPLAQSIEDRFDVDYLAPLAGIGRGAIDAMAADRLVVESGPSAEIPKADYEVELRALLRKRYGEGAVADVFPEHTQSRVQGLR	not soluble
MIPLLGIISLSLNISGPKYRLEMGLGGKVAVDSTFSNEGVQKATEPNGTKVTYYYGGESKGFIEFSSDWKLKINEKCDINFGPRIKLLNISHIAKNIFFFLGITAGAGFEFNYNIRENVKFYTGIDGLIGMGTFMNLNNSSSKDTESKKISVIYDFIPESNVTVGTKINDKYNVGLFVDILQGYFGLKAGYTF	not soluble
MGSDKIHHHHHHMFRPKLLFTSLAALALGACSPQDPQAVTSAAIANQVILPTYSRWVEADRTLAASALAYCEGKESLDKARADFLNAQKAWAELQPLLVGPLAEGNRAWQVQFWPDKKNLVGRQVEQLVNGDKPVDAEALGKSSVVVRGLSAYEYILFDSKPDIATAEQKARYCPLLVAIGAHQKALAEEILKGWNSTDGMLSQMTKFPNQRYADSHEAIADLLRAQVTALDTLKKKLGAPMGRQSKGIPQPLQAEAWRSHNSMNSLQASLKAAEAVWVGVDNQGLRGLLPSDQKALADKIDAAYATSLKLLADNQKTLGELLADDAGQQTLNQIYDSLNVVHRLHEGDLAKALNIQLGFNANDGD	not soluble
